T1: human CD19 on CHO-K1-human CD19 cells (human, UniProt P15391 20-556)
T1 construct: whole, on cells; also called CHO-K1-human CD19-2C8
T1 sequence (looked up): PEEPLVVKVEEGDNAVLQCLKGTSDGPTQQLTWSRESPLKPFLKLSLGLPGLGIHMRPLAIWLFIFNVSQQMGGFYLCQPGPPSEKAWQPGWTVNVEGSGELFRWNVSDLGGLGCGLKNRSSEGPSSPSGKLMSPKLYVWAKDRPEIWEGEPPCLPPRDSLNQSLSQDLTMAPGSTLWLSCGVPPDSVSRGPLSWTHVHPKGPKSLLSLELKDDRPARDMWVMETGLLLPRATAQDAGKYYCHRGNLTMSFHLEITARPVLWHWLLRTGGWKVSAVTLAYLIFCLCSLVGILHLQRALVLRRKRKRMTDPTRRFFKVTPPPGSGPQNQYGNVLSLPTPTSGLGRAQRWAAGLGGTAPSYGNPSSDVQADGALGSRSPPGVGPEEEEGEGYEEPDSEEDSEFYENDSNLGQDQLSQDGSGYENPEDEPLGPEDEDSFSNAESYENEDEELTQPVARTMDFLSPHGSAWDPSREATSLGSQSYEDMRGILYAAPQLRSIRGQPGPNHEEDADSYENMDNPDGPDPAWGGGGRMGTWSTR

T2: human CD19 on Raji cells (human, UniProt P15391 20-556)
T2 construct: whole, on cells
T2 sequence (looked up): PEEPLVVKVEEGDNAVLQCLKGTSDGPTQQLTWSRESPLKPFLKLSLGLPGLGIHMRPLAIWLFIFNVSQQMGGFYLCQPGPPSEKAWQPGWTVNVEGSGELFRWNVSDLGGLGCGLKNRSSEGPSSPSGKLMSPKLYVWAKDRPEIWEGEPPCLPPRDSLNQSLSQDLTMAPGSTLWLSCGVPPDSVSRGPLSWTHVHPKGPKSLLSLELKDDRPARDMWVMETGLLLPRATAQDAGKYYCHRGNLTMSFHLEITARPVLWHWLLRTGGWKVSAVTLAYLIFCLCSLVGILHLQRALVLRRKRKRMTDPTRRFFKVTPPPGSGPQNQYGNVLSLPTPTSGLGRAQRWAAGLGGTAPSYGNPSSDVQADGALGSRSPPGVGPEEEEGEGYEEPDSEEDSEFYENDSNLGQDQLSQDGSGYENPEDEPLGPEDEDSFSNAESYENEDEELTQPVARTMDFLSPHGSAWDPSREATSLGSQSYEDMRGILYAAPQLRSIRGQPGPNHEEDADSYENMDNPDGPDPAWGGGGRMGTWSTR

T3: cynomolgus monkey CD19 on peripheral blood B cells (cynomolgus monkey (Macaca fascicularis), UniProt A0A2K5W8L9 20-557)
T3 construct: whole, on cells; also called cynomolgus monkey B cells
T3 sequence: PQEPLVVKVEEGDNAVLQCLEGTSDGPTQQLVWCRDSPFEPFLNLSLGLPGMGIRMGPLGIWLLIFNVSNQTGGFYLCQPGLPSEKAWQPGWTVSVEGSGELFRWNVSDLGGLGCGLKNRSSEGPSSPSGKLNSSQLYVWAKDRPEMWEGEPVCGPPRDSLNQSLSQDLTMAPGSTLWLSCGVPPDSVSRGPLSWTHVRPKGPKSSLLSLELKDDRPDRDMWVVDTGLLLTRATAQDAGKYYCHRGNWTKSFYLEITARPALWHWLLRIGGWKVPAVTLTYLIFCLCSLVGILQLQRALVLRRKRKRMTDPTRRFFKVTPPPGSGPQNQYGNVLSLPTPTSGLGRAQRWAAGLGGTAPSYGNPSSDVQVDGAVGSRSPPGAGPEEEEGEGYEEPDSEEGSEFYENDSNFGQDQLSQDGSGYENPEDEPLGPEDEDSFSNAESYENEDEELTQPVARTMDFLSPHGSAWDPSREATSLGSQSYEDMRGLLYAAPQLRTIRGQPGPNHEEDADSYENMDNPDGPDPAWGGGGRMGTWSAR


Experiments:
[1] = target: T1, human CD19 on CHO-K1-human CD19 cells; assay: FACS on CHO-K1-human CD19 cells
human CD19 on Raji cells = target: T2, human CD19 on Raji cells; assay: FACS on Raji cells
[2] = target: T4, monkey CD19 on HEK293T-monkey CD19 cells (monkey); assay: FACS on HEK293T-monkey CD19 cells
T4 construct: whole, on cells
How it was run: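 Cells blocked in PBS + 2% (w/w) BSA at 2×10⁶ cells/ml, then incubated with test antibody on ice for 2 h. After washes, binding read by flow cytometry as mean fluorescence intensity (MFI). EC50 from fitted MFI curves. Parental HEK293T cells run by the same method.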

[3] = target: T3, cynomolgus monkey CD19 on peripheral …; assay: FACS, cynomolgus PBMC, CD20+ B cells
Procedure: The monkey peripheral blood mononuclear cells were extracted from fresh cynomolgus monkey peripheral blood (purchased from Shanghai Medicilon Inc.) according to the instructions of Ficoll-Paque Plus (purchased from GE Healthcae, catalog number: 171440-02). After the cell suspension was centrifuged, the cells were resuspended in PBS containing 1% BSA, and then the cells were counted. […] The mixture was incubated for 1 h at room temperature. After washing the cells three times, APC-labeled secondary antibody anti-human IgG Fc (catalog number: 409306, purchased from Biolegend) was added. After incubation at room temperature in the dark for 30 minutes, the cells were washed 5 times, gently resuspended with PBS containing 1% BSA, and detected and analyzed by FACS (FACS Canto™, purchased from BD Company), in which CD20 was used as a marker of B cells to gate the CD20-positive B cell population, the proportion of the chimeric antibody-labeled positive cells was analyzed, and the proportion of the chimeric antibody positive cell population to B cell population was calculated after treatments with the chimeric antibodies at the concentrations of 100 nM, 10 nM and 1 nM, respectively.

| Binder | EC50 [1] [nM] | Maximum mean fluorescence intensity [1] | EC50 (human CD19 on Raji cells) [nM] | Maximum mean fluorescence intensity (human CD19 on Raji cells) | EC50 [2] [nM] | Maximum mean fluorescence intensity [2] | Proportion of chimeric antibody positive cells to B cells (%) at 1 nM [3] [%] | Proportion of chimeric antibody positive cells to B cells (%) at 10 nM [3] [%] | Proportion of chimeric antibody positive cells to B cells (%) at 100 nM [3] [%] |
| --- | --- | --- | --- | --- | --- | --- | --- | --- | --- |
| F3.5.1 (antibody, human IgG1, V domains shown, human-murine chimeric antibody, human IgG1) VH: QAQLQQSGPELVKPGASVKISCKASGYAFSGSWMNWVQQRPGKGLEWIGRIYPGDGDTYYNGKFKDKAILTADKSSSTAYMQLSSLTSEDSAVYFCAQLRYRYVMDYWGQGTSVTVSS VL: DIVLTQSPASLAVSLGQRATISCRASESVSIHGSHLMHWYQQKPGQPPRLLIYAASNLESGVPARFSGSGSETDFTLNIHPVEEEDAATYFCQQGIKDPYTFGGGTKLEIK | 2.49 | 49900 | 1.47 | 24800 | 6.11 | 80000 | 6 | 15 | 23 |
| F3.40.14 (antibody, human IgG1, V domains shown, human-murine chimeric antibody, human IgG1) VH: QAQLQQSGPELVKPGASVKISCKASGYAFSGSWMNWVQQRPGKGLEWIGRIYPGDGDTYYSGKFKDKAILTADTSSSTAYMQLSSLTSEDSAVYFCAQLRSRYVMDYWGQGASVTVSS VL: DIVLTQSPASLAVSLGQRATISCRASESVSIHGTHLMHWYQQKPGQPPRLLIYAASNLESGVPARFSGSGSETDFTLNIHPVEEEDAATYFCQQGIDDPYTFGGGTKLEIK | 6 | 49100 | 2.59 | 27000 |  | 281 | 1 | 1 | 5 |
| F3.64.4 (antibody, human IgG1, V domains shown, human-murine chimeric antibody, human IgG1) VH: EVQLQQSGPELVKPGASVKISCKASGYTFTDYHINWVKQSHGKSPEWIGDINPNNGGTTYNQKFKDKATLTVDKSSSTAFMELRSLTSEDSAVYYCARFITTVVAWYFDVWGTGTTVTVSS VL: DIQMTQSPASLSVSVGETVTITCRASENIYSNLAWYQQKQGKSPQLLVYAATNLADGVPSRFSGSGSGTQYSLKINSLQSEDFGNYYCQRFWDTPRTFGGGTKLEIK | 0.61 | 63700 | 0.43 | 35800 | 3.99 | 98400 | 1 | 2 | 9 |
| F3.74.4 (antibody, human IgG1, V domains shown, human-murine chimeric antibody, human IgG1) VH: QVQLQQSGAELVRPGASVTLSCKASGYTFTDYEMHWVKQTPVHGLEWIGGIAPETGLTTYNQKFEDKAILTADKSSRTAYMELRSLTSEDSAVYFCNPNNYGLWGTGTTVTVSS VL: not shown | 4.55 | 3850 | 3.41 | 30100 |  | 121 | 1 | 1 | 1 |
| F3.13.2 (antibody, human IgG1, V domains shown, human-murine chimeric antibody, human IgG1) VH: DVQLQESGPGLMKPSQSLSLTCSVTGYSITSGYYWNWIRQFPGNKLEWMGYISYDGSNNYNPSLKNRFSITRDTSKNQFFLKLNSVTTEDTATYYCARRKLTGGPYFDYWGQGTTLTVSS VL: DIVLTQSPASLAVTLGQRATISCRASESVSFHGFHIMHWYQQKPGQPPKLLIYAASHLVSGVPDRFSGSGSETDFTLNIHPVEEEDAAAYFCQQSVEDPWTFGGGTKLEIK | 2.46 | 43900 | 5.24 | 27100 | 2.64 | 66400 | 1 | 3 | 8 |
| F3.3.10 (antibody, human IgG1, V domains shown, human-murine chimeric antibody, human IgG1) VH: DVQLQESGPGLAKLSQSLSLTCSVTGYSITSGYYWNWIRQFPGNKLEWMGHISYDGNNNYNPSLKNRISITRDTSKNQFFLKLNSVTTEDTATYYCARENYSNYYFDYWGQGTTLTVSS VL: DIVLTQSPASLAVSLGQRATISCRASQSVSKSSYTYIHWYQQKPGQPPKLLIKYASILQSGVPARFSGSGSGTDFTLNFHPVEEEDTATYYCQHSWEIPYTFGGGTKLEIK | 1.9 | 48300 | 2.9 | 29700 | 2.08 | 173000 | 38 | 91 | 99 |
| F3.83.9 (antibody, human IgG1, V domains shown, human-murine chimeric antibody, human IgG1) VH: DVQLQESGPGLVKPSQSLSLTCSVTGYSITSGYYWNWIRQFPGNKLEWMGYISYDGGNNYNPSLKNRISITRDTSKNQFFLKLNSVTTEDTATYFCAREDYSNWYFDVWGTGTTVTVSS VL: DIVLTQSPASLAVSLGQRATISCRASQSVSKSSYSYMHWYQQKPGQSPKLLIKYASILKSGVPARFSGSGSGTDFTLNIHPVEEEDTATYYCQHSWEIPWTFGGGTKLEIK | 1.34 | 52200 | 1.75 | 29700 | 1.12 | 198000 | 58 | 97 | 99 |
| F3.81.2 (antibody, human IgG1, V domains shown, human-murine chimeric antibody, human IgG1) VH: QVQLQQPGAELVMPGASVKLSCKASAYTFTNYWMHWVKQRPGHGLEWIGEIDPSDSYTDYNQNFKAKATLTVDKSSSTAYMQLSSLTSEDSAVYYCARLMGRYFDVWGTGTTVTVSS VL: DIVMTQSHKFMSTSVGDRVSITCKASQDVSAAVAWYQQKPGQSPKLLINSASYRYTGVPDRFTGSGSGTDFTFTISSVQAEDLAVYYCQQHYSTPLTFGAGTKLELR | 1.27 | 59600 | 0.68 | 31300 | 3.44 | 153000 | 7 | 16 | 38 |
